Assay results reported in patent US20090099029A1, “Methods and substrates for conducting assays” (Invitrogen Corporation, priority 2005, published 2009).

B1: MAP3K9(MLK1) (protein)
chain: MEPSRALLGCLASAAAAAPPGEDGAGAGAEEEEEEEEEAAAAVGPGELGCDAPLPYWTAVFEYEAAGEDELTLRLGDVVEVLSKDSQVSGDEGWWTGQLNQRVGIFPSNYVTPRSAFSSRCQPGGEDPSCYPPIQLLEIDFAELTLEEIIGIGGFGKVYRAFWIGDEVAVKAARHDPDEDISQTIENVRQEAKLFAMLKHPNIIALRGVCLKEPNLCLVMEFARGGPLNRVLSGKRIPPDILVNWAVQIARGMNYLHDEAIVPIIHRDLKSSNILILQKVENGDLSNKILKITDFGLAREWHRTTKMSAAGTYAWMAPEVIRASMFSKGSDVWSYGVLLWELLTGEVPFRGIDGLAVAYGVAMNKLALPIPSTCPEPFAKLMEDCWNPDPHSRPSFTNILDQLTTIEESGFFEMPKDSFHCLQDNWKHEIQEMFDQLRAKEKELRTWEEELTRAALQQKNQEELLRRREQELAEREIDILERELNIIIHQLCQEKPRVKK
modifications: left off: a dimerising Fc or GST
B2: MAP3K11(MLK3) (protein)
chain: MEPLKSLFLKSPLGSWNGSGSGGGGGGGGGRPEGSPKAAGYANPVWTALFDYEPSGQDELALRKGDRVEVLSRDAAISGDEGWWAGQVGGQVGIFPSNYVSRGGGPPPCEVASFQELRLEEVIGIGGFGKVYRGSWRGELVAVKAARQDPDEDISVTAESVRQEARLFAMLAHPNIIALKAVCLEEPNLCLVMEYAAGGPLSRALAGRRVPPHVLVNWAVQIARGMHYLHCEALVPVIHRDLKSNNILLLQPIESDDMEHKTLKITDFGLAREWHKTTQMSAAGTYAWMAPEVIKASTFSKGSDVWSFGVLLWELLTGEVPYRGIDCLAVAYGVAVNKLTLPIPSTCPEPFAQLMADCWAQDPHRRPDFASILQQLEALEAQVLREMPRDSFHSMQEGWKREIQGLFDELRAKEKELLSREEELTRAAREQRSQAEQLRRREHLLAQWELEVFERELTLLLQQVDRERPHVRRRRGTFKRSKLRARDGGERISMPLDFKHRITVQASPGLDRRRNVFEVGPGDSPTFPRFRAIQLEPAEPGQAWGRQSPRRLEDSSNGERRACWAWGPSSPKPGEAQNGRRRSRMDEATWYLDSDDSSPLGSPSTPPALNGNPPRPSLEPEEPKRPVPAERGSSSGTPKLIQRALLRGTALLASLGLGRDLQPPGGPGRERGESPTTPPTPTPAPCPTEPPPSPLICFSLKTPDSPPTPAPLLLDLGIPVGQRSAKSPRREEEPRGGTVSPPPGTSRSAPGTPGTPRSPPLGLISRPRPSPLRSRIDPWSFVSAGPRPSPLPSPQPAPRRAPWTLFPDSDPFWDSPPANPFQGGPQDCRAQTKDMGAQAPWVPEAGP
modifications: left off: a dimerising Fc or GST
B3: MAP3K2(MEKK2) (protein)
chain: MDDQQALNSIMQDLAVLHKASRPALSLQETRKAKSSSPKKQNDVRVKFEHRGEKRILQFPRPVKLEDLRSKAKIAFGQSMDLHYTNNELVIPLTTQDDLDKAVELLDRSIHMKSLKILLVINGSTQATNLEPLPSLEDLDNTVFGAERKKRLSIIGPTSRDRSSPPPGYIPDELHQVARNGSFTSINSEGEFIPESMDQMLDPLSLSSPENSGSGSCPSLDSPLDGESYPKSRMPRAQSYPDNHQEFSDYDNPIFEKFGKGGTYPRRYHVSYHHQEYNDGRKTFPRARRTQGTSLRSPVSFSPTDHSLSTSSGSSIFTPEYDDSRIRRRGSDIDNPTLTVMDISPPSRSPRAPTNWRLGKLLGQGAFGRVYLCYDVDTGRELAVKQVQFDPDSPETSKEVNALECEIQLLKNLLHERIVQYYGCLRDPQEKTLSIFMEYMPGGSIKDQLKAYGALTENVTRKYTRQILEGVHYLHSNMIVHRDIKGANILRDSTGNVKLGDFGASKRLQTICLSGTGMKSVTGTPYWMSPEVISGEGYGRKADIWSVACTVVEMLTEKPPWAEFEAMAAIFKIATQPTNPKLPPHVSDYTRDFLKRIFVEAKLRPSADELLRHMFVHYH
modifications: left off: a dimerising Fc or GST
B4: MAPK12(p38gamma) (protein)
chain: MSSPPPARSGFYRQEVTKTAWEVRAVYRDLQPVGSGAYGAVCSAVDGRTGAKVAIKKLYRPFQSELFAKRAYRELRLLKHMRHENVIGLLDVFTPDETLDDFTDFYLVMPFMGTDLGKLMKHEKLGEDRIQFLVYQMLKGLRYIHAAGIIHRDLKPGNLAVNEDCELKILDFGLARQADSEMTGYVVTRWYRAPEVILNWMRYTQTVDIWSVGCIMAEMITGKTLFKGSDHLDQLKEIMKVTGTPPAEFVQRLQSDEAKNYMKGLPELEKKDFASILTNASPLAVNLLEKMLVLDAEQRVTAGEALAHPYFESLHDTEDEPQVQKYDDSFDDVDRTLDEWKRVTYKEVLSFKPPRQLGARVSKETPL
modifications: left off: small tags and cut ends
B5: MAPK11(p38B) (protein)
chain: MSGPRAGFYRQELNKTVWEVPQRLQGLRPVGSGAYGSVCSAYDARLRQKVAVKKLSRPFQSLIHARRTYRELRLLKHLKHENVIGLLDVFTPATSIEDFSEVYLVTTLMGADLNNIVKCQALSDEHVQFLVYQLLRGLKYIHSAGIIHRDLKPSNVAVNEDCELRILDFGLARQADEEMTGYVATRWYRAPEIMLNWMHYNQTVDIWSVGCIMAELLQGKALFPGSDYIDQLKRIMEVVGTPSPEVLAKISSEHARTYIQSLPPMPQKDLSSIFRGANPLAIDLLGRMLVLDSDQRVSAAEALAHAYFSQYHDPEDEPEAEPYDESVEAKERTLEEWKELTYQEVLSFKPPEPPKPPGSLEIEQ
modifications: left off: small tags and cut ends
B6: EPHA4 (protein)
chain: SRRRSKYSKAKQEADEEKHLNQGVRTYVDPFTYEDPNQAVREFAKEIDASCIKIEKVIGVGEFGEVCSGRLKVPGKREICVAIKTLKAGYTDKQRRDFLSEASIMGQFDHPNIIHLEGVVTKCKPVMIITEYMENGSLDAFLRKNDGRFTVIQLVGMLRGIGSGMKYLSDMSYVHRDLAARNILVNSNLVCKVSDFGMSRVLEDDPEAAYTTRGGKIPIRWTAPEAIAYRKFTSASDVWSYGIVMWEVMSYGERPYWDMSNQDVIKAIEEGYRLPPPMDCPIALHQLMLDCWQKERSDRPKFGQIVNMLDKLIRNPNSLKRTGTESSRPNTALLDPSSPEFSAVVSVGDWLQAIKMDRYKDNFTAAGYTTLEAVVHVNQEDLARIGITAITHQNKILSSVQAMRTQMQQMHGRMVPV
modifications: left off: a dimerising Fc or GST
B7: MAP4K4(HGK) (protein)
chain: MANDSPAKSLVDIDLSSLRDPAGIFELVEVVGNGTYGQVYKGRHVKTGQLAAIKVMDVTEDEEEEIKLEINMLKKYSHHRNIATYYGAFIKKSPPGHDDQLWLVMEFCGAGSITDLVKNTKGNTLKEDWIAYISREILRGLAHLHIHHVIHRDIKGQNVLLTENAEVKLVDFGVSAQLDRTVGRRNTFIGTPYWMAPEVIACDENPDATYDYRSDLWSCGITAIEMAEGAPPLCDMHPMRALFLIPRNPPPRLKSKKWSKKFFSFIEGCLVKNYMQRPSTEQLLKHPFIRDQPNERQVRIQLKDHIDRTRKKRGEKDETEYEYSGSEE
modifications: left off: a dimerising Fc or GST
B8: MAP3K5(ASK1) (protein)
chain: MSTEADEGITFSVPPFAPSGFCTIPEGGICRRGGAAAVGEGEEHQLPPPPPGSFWNVESAAAPGIGCPAATSSSSATRGRGSSVGGGSRRTTVAYVINEASQGQLVVAESEALQSLREACETVGATLETLHFGKLDFGETTVLDRFYNADIAVVEMSDAFRQPSLFYHLGVRESFSMANNIILYCDTNSDSLQSLKEIICQKNTMCTGNYTFVPYMITPHNKVYCCDSSFMKGLTELMQPNFELLLGPICLPLVDRFIQLLKVAQASSSQYFRESILNDIRKARNLYTGKELAAELARIRQRVDNIEVLTADIVINLLLSYRDIQDYDSIVKLVETLEKLPTFDLASHHHVKFHYAFALNRRNLPGDRAKALDIMIPMVQSEGQVASDMYCLVGRIYKDMFLDSNFTDTESRDHGASWFKKAFESEPTLQSGINYAVLLLAAGHQFESSFELRKVGVKLSSLLGKKGNLEKLQSYWEVGFFLGASVLANDHMRVIQASEKLFKLKTPAWYLKSIVETILIYKHFVKLTTEQPVAKQELVDFWMDFLVEATKTDVTVVRFPVLILEPTKIYQPSYLSINNEVEEKTISIWHVLPDDKKGIHEWNFSASSVRGVSISKFEERCCFLYVLHNSDDFQIYFCTELHCKKFFEMVNTITEEKGRSTEEGDCESDLLEYDYEYDENGDRVVLGKGTYGIVYAGRDLSNQVRIAIKEIPERDSRYSQPLHEEIALHKHLKHKNIVQYLGSFSENGFIKIFMEQVPGGSLSALLRSKWGPLKDNEQTIGFYTKQILEGLKYLHDNQIVHRDIKGDNVLINTYSGVLKISDFGTSKRLAGINPCTETFTGTLQYMAPEIIDKGPRGYGKAADIWSLGCTIIEMATGKPPFYELGEPQAAMFKVGMFKVHPEIPESMSAEAKAFILKCFEPDPDKRACANDLLVDEFLKVSSKKKKTQPKLSALSAGSNEYLRSISLPVPVLVEDTSSSSEYGSVSPDTELKVDPFSFKTRAKSCGERDVKGIRTLFLGIPDENFEDHSAPPSPEEKDSGFFMLRKDSERRATLHRILTEDQDKIVRNLMESLAQGAEEPKLKWEHITTLIASLREFVRSTDRKIIATTLSKLKLELDFDSHGISQVQVVLFGFQDAVNKVLRNHNIKPHWMFALDSIIRKAVQTAITILVPELRPHFSLASESDTADQEDLDVEDDHEEQPSNQTVRRPQAVIEDAVATSGVSTLSSTVSHDSQSAHRSLNVQLGRMKIETNRLLEELVRKEKELQALLHRAIEEKDQEIKHLKLKSQPIEIPELPVFHLNSSGTNTEDSELTDWLRVNGADEDTISRFLAEDYTLLDVLYYVTRDDLKCLRLRGGMLCTLWKAIIDFRNKQT
modifications: left off: a dimerising Fc or GST

system: kinases of Table 6 on Myelin Basic Protein (MBP); experiment: Kinase assay using MBP substrate, ProQ Diamond stain (Table 6); assay type: biochemical; details: kinase printed on MBP-coated slide; 20 uM ATP, 30° C.; ProQ Diamond Microarray Stain; graded Strong/Weak/Negative
Description: In this illustrative example, four-well slides were designed with a hydrophobic mask surrounding 4-wells of aldehyde- or epoxy-coated glass (smooth or ES grade; Erie Scientific (Portsmouth, N.H.)). […] Bovine, dephosphorylated, Myelin Basic Protein (MBP) was purchased from Upstate Biotechnology (#13-110). MBP was diluted to 1 mg/ml in PBS, applied to the slide surface, covered with a coverslip, and left overnight at 4° C. to coat the slide with the MBP. Slides were washed 3 times with water and spun dry before printing.
Kinases were purchased from Panvera (Invitrogen, Carlsbad, Calif.), diluted in printing buffer (50 mM Tris pH 7.5, 25% glyercol, 0.05% TritonX-100, 2 mM DTT) and deposited using a GeneMachine OmniGrid100. Slides were stored at −20° C.
Reactions were performed following removal of the slide from the freezer. Reaction buffer (20 mM HEPES pH 7.5, 4 mM MgCl2, 2 mM DTT, 20 uM ATP, 5% DMSO) was added with or without inhibitor, a coverslip applied, and the slide placed at 30° C. for the appropriate reaction time. The slide was washed with water to stop the reaction (3 times) and spun dry. ProQ Diamond Microarray Stain (Invitrogen #P33706) was applied, covered with a coverslip, and the slide was incubated in the dark at room temperature for 30 minutes. The slide was destained and washed three times with water, and spun dry.

Q: For B1, which “MBP Kinase Activity” value is on record?
A: Strong

Q: How did the “MBP Kinase Activity” value turn out when B2 was run?
A: Negative

Q: How did the “MBP Kinase Activity” value turn out when B3 was run?
A: Weak

Q: Which “MBP Kinase Activity” value does the source give for B4 here?
A: Strong

Q: B5 was tested. Which “MBP Kinase Activity” value did it give?
A: Strong

Q: How did the “MBP Kinase Activity” value turn out when B6 was run?
A: Strong

Q: B7 was tested. Which “MBP Kinase Activity” value did it give?
A: Strong

Q: Which “MBP Kinase Activity” value does the source give for B8 here?
A: Weak
